# In patent publication US20260248972A1, “DUAL RECEPTOR TARGETING RADIOLIGANDS AND USES THEREOF RELATED APPLICATIONS” (priority 2022, published 2026):
# Like-named read-outs stand apart in the source and are kept apart here.
# Columns and labels:
# CCK2R [1] = target: T1, CCK2R (Homo sapiens, UniProt P32239); experiment: Competitive binding (FACS) on CCK2R-transfected HEK 293T cells with Cy5-labeled F11N derivative; settings: HEK 293T transfected, Cy5-labeled F11N derivative competitive ligand (Table 4); read-out: CCK2R IC50
# T1 construct: expressed in transfected cells; host or cells: HEK 293T cells
# T1 sequence (P32239 1-447): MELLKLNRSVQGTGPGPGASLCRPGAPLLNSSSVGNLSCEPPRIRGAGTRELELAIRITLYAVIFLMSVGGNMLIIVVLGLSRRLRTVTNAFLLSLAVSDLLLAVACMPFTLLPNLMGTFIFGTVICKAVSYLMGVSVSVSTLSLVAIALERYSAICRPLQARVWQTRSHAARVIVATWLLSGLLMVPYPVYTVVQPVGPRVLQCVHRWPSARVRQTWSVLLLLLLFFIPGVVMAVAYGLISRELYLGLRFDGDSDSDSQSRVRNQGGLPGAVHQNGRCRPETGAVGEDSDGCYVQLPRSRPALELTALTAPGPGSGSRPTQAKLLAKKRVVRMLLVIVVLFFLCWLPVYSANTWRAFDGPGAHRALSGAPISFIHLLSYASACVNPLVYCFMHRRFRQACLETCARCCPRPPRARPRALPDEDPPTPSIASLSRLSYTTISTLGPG
# Protocol: Binding Affinity Tested by Using Cy5-Labled Competitive Ligands.
# HEK 293T cells were transfected with SSTR2 or CCK2R-expressing plasmid by Lipofectamine 2000 reagent. 24 hours after transfection, cells were harvested and suspended with assay buffer (1% OVA in DMEM). […] The testing compound was further supplemented into the wells at different concentrations. After incubation for 1 hour at dark, cells were washed and suspended in FACS buffer (1% OVA in DPBS).
# CCK2R [2] = target: T2, CCK2R (Rattus norvegicus, UniProt P30553); experiment: Competitive cell-binding assay on AR42J cells with 125I-C3 as competitive ligand
# T2 construct: host or cells: AR42J cells
# T2 sequence (P30553 1-452): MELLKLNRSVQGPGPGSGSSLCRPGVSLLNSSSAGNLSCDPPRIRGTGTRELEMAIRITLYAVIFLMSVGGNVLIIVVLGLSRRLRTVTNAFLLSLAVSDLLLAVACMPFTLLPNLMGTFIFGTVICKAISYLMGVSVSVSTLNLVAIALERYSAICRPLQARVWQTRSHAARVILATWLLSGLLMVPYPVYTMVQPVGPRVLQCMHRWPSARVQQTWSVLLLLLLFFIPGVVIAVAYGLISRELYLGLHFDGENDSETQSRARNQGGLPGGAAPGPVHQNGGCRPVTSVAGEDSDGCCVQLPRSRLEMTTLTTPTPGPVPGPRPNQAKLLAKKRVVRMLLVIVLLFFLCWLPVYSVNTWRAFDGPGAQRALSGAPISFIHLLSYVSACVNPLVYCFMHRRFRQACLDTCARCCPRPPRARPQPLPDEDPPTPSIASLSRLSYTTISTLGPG
# In short: (§1)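 Displacement of 125I-C1 or 125I-C3 tracer (0.02 μCi/well) by 0-10000 nM compound measured in triplicate on suspended AR42J cells in BSA-containing RPMI-1640, 37° C. for 1 h. After filtration washes, filter-bound counts gave IC50 via nonlinear regression fit.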
# SSTR2 = target: T3, SSTR2 (Rattus norvegicus, UniProt P30680); experiment: Competitive cell-binding assay on AR42J cells with 125I-C1 as competitive ligand
# T3 construct: host or cells: AR42J cells
# In short: as §1
# [3] = Biodistribution study of 177Lu-labeled compounds in AR42J tumor-bearing mice; settings: BALB/c nude, mouse, in vivo, iv, total radioactivity
# In short: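 Tissue uptake given as % ID and % ID/g from γ counting of organs taken 4, 24 and 72 h after injection into BALB/c nude mice carrying subcutaneous AR42J xenografts (0.05-0.50 g). Tracers were ^177Lu-labelled at 95° C for 15 min in pH 4.5 NaOAc buffer and used neat or diluted in PBS containing 3 mg/mL ascorbate.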
# T3 sequence (P30680 whole entry): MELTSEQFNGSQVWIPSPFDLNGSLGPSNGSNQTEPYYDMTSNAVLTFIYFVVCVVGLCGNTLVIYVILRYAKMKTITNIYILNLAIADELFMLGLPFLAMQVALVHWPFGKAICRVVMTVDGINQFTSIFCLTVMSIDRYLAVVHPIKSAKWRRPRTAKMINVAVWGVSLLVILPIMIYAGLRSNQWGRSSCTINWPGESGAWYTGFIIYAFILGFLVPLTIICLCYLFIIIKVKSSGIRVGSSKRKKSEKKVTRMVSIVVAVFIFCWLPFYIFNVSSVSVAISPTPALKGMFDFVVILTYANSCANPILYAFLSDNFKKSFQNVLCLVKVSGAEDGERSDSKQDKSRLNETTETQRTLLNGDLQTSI
SMILES,IC50 (CCK2R [1]),"Relative Binding Affinity CCK2R (CCK2R [2]; based on mean IC50, C-2 = 1.00)","Relative Binding Affinity SSTR2 (SSTR2; based on mean IC50, C-1 = 1.00)",tissue to tissue ratio at 24 h ([3]; T/K Tumor/Kidney ratio),tissue to tissue ratio at 24 h ([3]; T/L Tumor/Liver ratio),tissue to tissue ratio at 24 h ([3]; T/P Tumor/Pancreas ratio),tissue to tissue ratio at 24 h ([3]; T/Sp Tumor/Spleen ratio),tissue to tissue ratio at 24 h ([3]; T/St Tumor/Stomach ratio),tissue uptake at 24 h ([3]; uptake Kidney),tissue uptake at 24 h ([3]; uptake Liver),tissue uptake at 24 h ([3]; uptake Pancreas),tissue uptake at 24 h ([3]; uptake Spleen),tissue uptake at 24 h ([3]; uptake Stomach),tissue uptake at 24 h ([3]; uptake Tumor),further results
"CCCC[C@H](NC(=O)[C@H](Cc1c[nH]c2ccccc12)NC(=O)CNC(=O)[C@H](Cc1ccc(O)cc1)NC(=O)[C@H](C)NC(=O)[C@@H](CCC(=O)O)NC(=O)[C@@H](CCC(=O)O)NC(=O)[C@@H](CCC(=O)O)NC(=O)[C@@H](CCC(=O)O)NC(=O)[C@@H](CCC(=O)O)NC(=O)[C@@H](CCC(=O)O)NC(=O)CN1CCN(CC(=O)O)CCN(CC(=O)O)CCN(CC(=O)O)CC1)C(=O)N[C@@H](CC(=O)O)C(=O)N[C@@H](Cc1ccccc1)C(N)=O [Compound C5, DOTA-e-e-e-e-e-e-Ala-Tyr-Gly-Trp-Nle-Asp-Phe-NH2, reference compound]",25.7 nM,–,–,–,–,–,–,–,–,–,–,–,–,–,–
"C[C@@H](O)[C@H](NC(=O)[C@@H]1CSSC[C@H](NC(=O)[C@@H](Cc2ccccc2)NC(=O)[C@H](CCCCNC(=O)COCCOCCNC(=O)c2cccc(NC(=O)N[C@@H]3CN(C4CCCCC4)c4ccccc4N(CC(=O)C(C)(C)C)C3=O)c2)NC(=O)CN2CCN(CC(=O)O)CCN(CC(=O)O)CCN(CC(=O)O)CC2)C(=O)N[C@@H](Cc2ccc(O)cc2)C(=O)N[C@H](Cc2c[nH]c3ccccc23)C(=O)N[C@@H](CCCCN)C(=O)N[C@@H]([C@@H](C)O)C(=O)N1)C(=O)O [Compound I-36, DOTA-K(-OEG-Z360)-f[CYwKTC]T-OH]",–,–,–,–,–,–,–,–,–,–,–,–,–,–,"IC50 (CCK2R [2]): 4.2 nM; Relative Binding Affinity CCK2R (CCK2R [2]): 4.0; IC50 (SSTR2): 1.6 nM; Relative Binding Affinity SSTR2 (SSTR2): 1.76; tissue to tissue ratio at 24 h ([3]; T/K Tumor/Kidney ratio, 177Lu-labeled, 24 hours after dosing): 2.9; tissue to tissue ratio at 24 h ([3]; T/L Tumor/Liver ratio, 177Lu-labeled, 24 hours after dosing): 4.3; tissue to tissue ratio at 24 h ([3]; T/P Tumor/Pancreas ratio, 177Lu-labeled, 24 hours after dosing): 13; tissue to tissue ratio at 24 h ([3]; T/Sp Tumor/Spleen ratio, 177Lu-labeled, 24 hours after dosing): 36; tissue to tissue ratio at 24 h ([3]; T/St Tumor/Stomach ratio, 177Lu-labeled, 24 hours after dosing): 11; tissue uptake at 24 h ([3]; uptake Kidney, 177Lu-labeled, 24 hours after dosing (Table 5)): 7.4 %ID/g; tissue uptake at 24 h ([3]; uptake Liver, 177Lu-labeled, 24 hours after dosing (Table 5)): 5 %ID/g; tissue uptake at 24 h ([3]; uptake Pancreas, 177Lu-labeled, 24 hours after dosing (Table 5)): 1.6 %ID/g; tissue uptake at 24 h ([3]; uptake Spleen, 177Lu-labeled, 24 hours after dosing (Table 5)): 0.6 %ID/g; tissue uptake at 24 h ([3]; uptake Stomach, 177Lu-labeled, 24 hours after dosing (Table 5)): 2 %ID/g; tissue uptake at 24 h ([3]; uptake Tumor, 177Lu-labeled, 24 hours after dosing (Table 5)): 21.6 %ID/g"
"C[C@@H](O)[C@H](NC(=O)[C@@H]1CSSC[C@H](NC(=O)[C@@H](Cc2ccccc2)NC(=O)COCCOCCNC(=O)COCCOCCNC(=O)[C@H](CCCCNC(=O)c2cccc(NC(=O)N[C@@H]3CN(C4CCCCC4)c4ccccc4N(CC(=O)C(C)(C)C)C3=O)c2)NC(=O)CN2CCN(CC(=O)O)CCN(CC(=O)O)CCN(CC(=O)O)CC2)C(=O)N[C@@H](Cc2ccc(O)cc2)C(=O)N[C@H](Cc2c[nH]c3ccccc23)C(=O)N[C@@H](CCCCN)C(=O)N[C@@H]([C@@H](C)O)C(=O)N1)C(=O)O [Compound I-39, DOTA-K(Z360)-OEG-OEG-f[CYwKTC]T-OH]",–,3.4,7.67,2.3,9.9,29,89,5.9,12 %ID/g,2.78 %ID/g,0.94 %ID/g,0.31 %ID/g,4.63 %ID/g,27.5 %ID/g,"IC50 (CCK2R [2]; AR42J cells, 125I-C3 competitive ligand, 37° C. 1 h, read-out: CCK2R/IC50): 4.9 nM; IC50 (SSTR2; AR42J cells, 125I-C1 competitive ligand, 37° C. 1 h, read-out: SSTR2/IC50): 0.367 nM"
"C[C@@H](O)[C@H](NC(=O)[C@@H]1CSSC[C@H](NC(=O)[C@@H](Cc2ccccc2)NC(=O)[C@H](CCCCNC(=O)COCCOCCNC(=O)COCCOCCNC(=O)c2cccc(NC(=O)N[C@@H]3CN(C4CCCCC4)c4ccccc4N(CC(=O)C(C)(C)C)C3=O)c2)NC(=O)CN2CCN(CC(=O)O)CCN(CC(=O)O)CCN(CC(=O)O)CC2)C(=O)N[C@@H](Cc2ccc(O)cc2)C(=O)N[C@H](Cc2c[nH]c3ccccc23)C(=O)N[C@@H](CCCCN)C(=O)N[C@@H]([C@@H](C)O)C(=O)N1)C(=O)O [Compound I-42, DOTA-K(-OEG-OEG-Z360)-f]CYwKTC]T-OH]",–,115,0.54,1.1,3.3,12,62,8.8,17.8 %ID/g,5.6 %ID/g,1.6 %ID/g,0.3 %ID/g,2.1 %ID/g,18.7 %ID/g,–
"C[C@@H](O)[C@H](NC(=O)[C@@H]1CSSC[C@H](NC(=O)[C@@H](Cc2ccccc2)NC(=O)CCCCCNC(=O)CCCCCNC(=O)[C@H](CCCCNC(=O)[C@H](CCC(=O)O)NC(=O)c2cccc(NC(=O)N[C@@H]3CN(C4CCCCC4)c4ccccc4N(CC(=O)C(C)(C)C)C3=O)c2)NC(=O)CCC(C(=O)O)N2CCN(CC(=O)O)CCN(CC(=O)O)CCN(CC(=O)O)CC2)C(=O)N[C@@H](Cc2ccc(O)cc2)C(=O)N[C@H](Cc2c[nH]c3ccccc23)C(=O)N[C@@H](CCCCN)C(=O)N[C@@H]([C@@H](C)O)C(=O)N1)C(=O)O (stereo partly shown) [Compound I-72, DOTAGA- K(-Glu- Z360)- Ahx- Ahx- f[CYwKTC]T- OH]",5.53 nM,–,–,–,–,–,–,–,–,–,–,–,–,–,–
"C[C@@H](O)[C@H](NC(=O)[C@@H]1CSSC[C@H](NC(=O)[C@@H](Cc2ccccc2)NC(=O)COCCOCCNC(=O)COCCOCCNC(=O)CC[C@H](NC(=O)[C@H](CCCCNC(=O)c2cccc(NC(=O)CC3CN(C4CCCCC4)c4ccccc4N(CC(=O)C(C)(C)C)C3=O)c2)NC(=O)CN2CCN(CC(=O)O)CCN(CC(=O)O)CCN(CC(=O)O)CC2)C(=O)O)C(=O)N[C@@H](Cc2ccc(O)cc2)C(=O)N[C@H](Cc2c[nH]c3ccccc23)C(=O)N[C@@H](CCCCN)C(=O)N[C@@H]([C@@H](C)O)C(=O)N1)C(=O)O (stereo partly shown) [Compound I-74, DOTA-K(Z360)-gGlu-OEG-OEG-f]CYwKTC]T-OH]",56.7 nM,–,–,–,–,–,–,–,–,–,–,–,–,–,–
